# Laboratory results taken from paper PMC7327165 (mBio, 2020).
# Molecular target: T1, full-length single-chain gp120BaL-CD4 complex (FLSC) (HIV-1 clade B, BaL (gp120 moiety); CD4 …, UniProt Q2MKA8, strain)
# T1 construct: also called full-length single-chain protein
# Test: FRET or BRET + other: fluorescence correlation spectroscopy
# Settings: both partners purified
row,Binder,binding result
1,"C11 Fab (Fab, V domains shown) VH: EVQLVESGGGLVKPGGSLRLSCAASGFTFSSYSMNWVRQAPGRGLEWVSSISNTSTYIYYADSVEGRFTLSRDNAKNSLYLQMNSLRAEDTAVYYCARANQHFDWLLSLLGGYHYYGMDVWGQGTTVTVSS VL: not shown",binds

# Molecular target: full-length monomeric gp120 (clade B, BaL strain) (HIV-1 clade B, strain BaL, UniProt Q2MKA8, strain)
# Test: flow cytometry on cells
# Settings: one partner purified
row,Binder,binding result
1,"DH677.3 mAb (antibody, V domains shown) VH: QVQLVQSGAEVQKPGASVKVSCKASGYTFASYDINWVRQATGQGLEWMGWMNPKTGNTGYAQKFQGRVTLTRNTSISTAYMELTSLRSEDTAVYYCATYRIIAAVGYRYFQYWGQGTLVTVSS VL: DIQLTQSPSSLSASVGDSVTITCRASQGFGNYLAWYQQRPGKVPEVLIYAATTLQSGVPSRFSGSGSGTDFTLTISSLQPEDVATYYCQKYNSAPFTFGQGTRLEIK",binds
2,"N12-i3 mAb (antibody, V domains shown) VH: QVQLVQSGAEVKKPGSSVRVSCKASGGSFSRYTVNWVRQAPGQGLEWMARFIPIFNMPDYAPKFQGRITITADESTSTAYLELSSLTSDDTAVYYCASRQHHEYFQEWGQGTLVTVSS VL: EIVLTQSPGTLSMSPGERATLSCRASRTVSSSNLAWYQQKPGQAPRLLIYDVSSRATGIPDRFSGRGSGTDFTLTISRLEPEDFAVYYCQQYGTSPLTFGGGTKVEIK",binds
3,"C11 mAb (antibody, V domains shown) VH: EVQLVESGGGLVKPGGSLRLSCAASGFTFSSYSMNWVRQAPGRGLEWVSSISNTSTYIYYADSVEGRFTLSRDNAKNSLYLQMNSLRAEDTAVYYCARANQHFDWLLSLLGGYHYYGMDVWGQGTTVTVSS VL: not shown",binds
4,"CH55 mAb (antibody, V domains shown) VH: QVQLVQSGAEVKKPGASVKVSCKASGYIFISYFMHWVRQAPGQGLEWMGIINPSSGDTRYAQKFQGRVTMTRDTSTNTVYMELSSLRSDDTAVYYCARRPGGLERHNWLDPWGQGTLVTVSS VL: not shown",binds
5,"A32 mAb (antibody, V domains shown) VH: QVQLQESGPGLVKPSQTLSLSCTVSGGSSSSGAHYWSWIRQYPGKGLEWIGYIHYSGNTYYNPSLKSRITISQHTSENQFSLKLNSVTVADTAVYYCARGTRLRTLRNAFDIWGQGTMVTVSS VL: VLTQPPSASGSPGQSVTISCTGTSSDVGGYNYVSWYQHHPGKAPKLIISEVNNRPSGVPDRFSGSKSGNTASLTVSGLQAEDEAEYYCSSYTDIHNFVFGGGTKLTVL",binds
6,"CH54 mAb (antibody, V domains shown) VH: QVQLVQSGPEVKKPGTSMKISCKASGFTFTRSTMQWVRQARGQRLEWIGWIVVGSGNTNYAQKFQERVTITRDMSTSTAYMELSSLRSEDTAVYYCAAAPVGPTSSDYWGQGTLVTVSS VL: DIQMTQSPSSLSASVGDRVTITCRASQSIINYLNWYQQKPGRAPKLLIYAASSLLSGVPSRFSGSGSGTDFTLTISSLQPEDFATYYCQQSYSTPYTFGQGTKLEIK",binds
